Source: the supplement of paper PMC12636428

Tested on: Saccharomyces cerevisiae
Assay: transcriptional activation domain activity (GFP:mCherry ratio, weighted mean of sorted bins, harmonized to initial dataset scale) (arbitrary fluorescence ratio units); higher = stronger transcriptional activation
Settings: beta-estradiol 1 µM; induction time 4 h
In short: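 The listed activation activity is a read-weighted mean of bin median fluorescence, averaged across barcodes and linearly mapped onto the initial dataset scale. Barcoded tiles, fused to an estradiol-inducible synthetic transcription factor, were integrated at URA3 in yeast diploids bearing a GFP reporter. Cells were held 4 hours at 30 °C in SC with 1 uM beta-estradiol, sorted into 8 GFP:mCherry bins, and sequenced, and tiles with fewer than 50 reads were excluded.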

Row | Sequence | transcriptional activation domain activity
1 | EEEQPKKKSARKKKNAEDEDEDWDAKPKPKAKPKAKAAKKKAADGEEAGDAEK | 26200
2 | LLLRGSTFSFLLSSFLHFFIALVNCMLYTPPKFFKNPFCMFILFYLSYLLWGT | 66000
3 | FYGLYPDNAQTLGSAPKTPTMRLVKAYLKTILSNPESRKIFYFLVLNLSYMMV | 85300
4 | TSSPSAQTAASTTVVLVIGSDDKKVKEVGDELKTKLNVKGGGKGPRWSGKFTG | 24700
5 | VALPCSFRGLLRFACVTWLKHLFGLISRVLDFQAWWGVQLHCLFLLGLMLLPP | 63500
6 | RAAVSAPVVPTKAAVAPEEPPVKRKRGRPRLTSPRYRPKAAPAKAPAPTPKVV | 50000
7 | WERIREKASILALAYRLGVLLFALHFLFCLSQPPRFARLFWLSFSLLVPSTFF | 59000
8 | MKILRLYLTKLPFLARPILTQLLQESLFRYGIVRELGIYLRQNYFDNTGRFTL | 83400
9 | NSLYLLPTAMTGEKPVADPLTLIRYILVWFPHIWCVICIHCHWPYFLFLNLTD | 78400
10 | KTKEGAAKNTKKSGERGKEKGLAGAKSKKSPINNSVKGKKSPSTKKTVKKAGK | 31600
11 | LFLFIFLVAESYLGFSCWVLYSNVPLYAHVADLAGTKKPFVLPVPFMNVINGG | 48000
12 | FLLAIRVSNMDLLMIGIMLTLFVRNVIVSTDYIRRGRVRYKALFYVLLCKYYR | 49600
13 | IEKNMYPVGTLLTLADHGFNGWLKTTLLPYLNLLHNLDVLDPELLTIFTSFIL | 54700
14 | VFTSLHTCRFAAPHLWWLIFSILCLQYLIILEVFVIAMLVFIIGPLIYLFWNI | 42600
15 | IAIQVMNRVLFFKAFKNVTRYSCAYKLCLVFFFFYIVINGKNFYVIEYAHLSM | 49300
16 | MVGVNGDHELLLCAIMFPPVLLIINSLLVSILFNDCFLVLSDILLCWMLSVVV | 50400
17 | IPLKKLCHAAIADLFRFLVLSKKDSKDIVARQRLQVAAWMGLWPPKIQRNKWV | 45600
18 | AAAKAAPAIEEEPQEEQPEEPDKAAAPKKRGRKRKSSGVGAATAAAAAVPRGP | 9830
19 | PYSLDIKNTVLDSADLNDIQNQETSLNLGLPPLSFDSPLPVTETIPSTTDNSL | 73400
20 | EDEAQGEEGEKAKKSRKRKRDEAAEGGKQKKEKAPPKPRAKKGSAEPKPKKAA | 25900
21 | NWYWLATTMYFLYGETVIYYFKHIVLVDKVLLPLATHHRFISFILYVFGFVFF | 58300

Row | Sequence | transcriptional activation domain activity
22 | EESAEEKQEEEDSADAKKQKTNGDAEEIEEAGENDEEKAEESTSKKKGRPAKN | 25100
23 | MPAYLDKPLTFLAFDWCVTFFFFCCFFLLILFLSLLVINVIVLCLLPLISLVS | < 6570
24 | MGLGVLYHLSLLFPFLFFFLSLLFFSLLSSSFFLLWLFPISCLGFIVLFWTGS | 22200
25 | IRNHSLPTNLQVKDKIEDLNEIKFFNDFEKLEFFNKYAKVNTNNDVNENNDLW | 46800
26 | REAAGRERGERGRDNARGAGEREQPGRVRARLRGGRGKAREGEEGSCVRSAAP | 22900
27 | ASSSDEEEQEVDDMETDSSKKRSHDETKEEEVEEEEERPKKTVKVEKPKEKKT | 29200
28 | LWGHVVMEFCCWDFVRRASGLDSILLLLVYIFSSLPYFFFVLFVCHIAILLLT | 34500
29 | RQTEKPLRSVYCYLIWGEIFVCLVFSIICWCHLYGLFGGSFEFYFMILTLWAL | 33000
30 | AVRLCRVTIKDITDPLPEGLRLSILLMSMDSLRLGRLYQVLDYMTIRSSLGKV | 44600
31 | RLFALLHLHILAYISFFISSSLAYHLHLFLLLLSYFSLLFCIFVSPRLGLSSC | 66400
32 | MAKCIVTQTFLAASKTKTGYTIHQIRYTMTFWEIYENLLAIYLLIHPQWHLSF | 40200
33 | PEEEEQAEAGVDSSIVEIAPKRGRGRPRKSLPTEGTTAEAPAKRGRGRPKKVS | 27600
34 | KKEEVKQEPTPAAAPEASTSDRGRGRGRGRGEGRGRGDGTRGRGRGGARPAGP | 34900
35 | STARKPRKKKEAEKTVDGAEDEITEETQKPKRKASTKRTSRKTTTDKEETTAT | 24200
36 | RELEKREREREEREREERERELEKREREREQRGRELEKRERRGRRGSESWRRG | 26100
37 | LATTDLTHRQNGEEPIQNEIAKLFHSGGDSVVDILFSQTSATEFVTVGGTGNV | 64400
38 | RGGNPSGNAGGAGRRAKKSKDRDRNKKKSKKNSGQSGDRSTSSSKNKNKKGGG | < 6570
39 | MKIHECTGVVYIGNVLCHKQPQVLLGLMFFMDLTLFFLDSYLWYIICNTIFSV | 68700
40 | GMCVCTYRLHRCSHVKSRGRRFLCLHVLLCDVMMGPLTEWWCPLLRMMVKVYL | 47800
41 | LLQSSKEDIPFINANLAFPDDNSTNIQLQPFSESQSQNKFDYDMFFRDSSKEG | 80700
42 | YKVPTASLKDGCLCVNVASEKNFEKDVREKASIYLPSVGKVTILMLLRNLLRL | 55000

Row | Sequence | transcriptional activation domain activity
43 | MFCLRSWLPLLFIPTNASPAFILLFFIGTYFLNRPCVYCSLLLLILFCTSCVW | 40200
44 | PIARESSSLFLANTPYLSDFLTMGSSYGGSGGFAKSITADPSLDYFNYKNHSH | 68600
45 | PFTELFRRFLFSNIRFTSKVTIISYIGTYYAIGAAWIMTTANYFAIGWFNGYL | 46500
46 | LAEEEGEEEEGESVTPTDDKIIVKLRGKDNTDTSLRVKQTTLIRSVISSYKKI | 64100
47 | TFLANILPITFYFYFYLHFLFLFFFFLFSLSAFLFFLFLYFYFLFSPLFLPFI | 63700
48 | TKTVKDTTPATNHMDDDIAMFDSLATTQPIDIAASNQQNGEIAQLWDFNVDQF | 77600
49 | MKFVFVPFAVSPPKPFFLLLFLLLFFTSTFCAFSISPFSLFCSSLFYCSRFLL | 52400
50 | HLLSPHIAPELIELLVVRTFLQPHPWPVPSCATTGFLRTLAWISRWAWRHSPL | 43900
51 | AAEEEEAEAQAEKEEAEAEEAEAEEELEEAQAEEAEAEEAEAEEAEAVRGAMG | < 6570
52 | DTNLPTNPEAIQLHGDEDIKAWLVLAKNLAINPSRILVVLHRAVRGTQTPALG | 40400
53 | RKSTSGKTEKADTEKPEKKKPANEGNTAAGTKGTGERKPAVKAGGGVKGRPSG | 17800
54 | MLFPPPPFSLFFFSLPFFLFFKTDLFFPCLIFLIPLYPFSPLVGDRLAILLGV | 55100
55 | GHKAEESVPRKPSRSKSKAREAEWAPDGGEEPVSRKPSRSKAKPKAAEVEKED | 23200
56 | MSHLLSSFLYDSLSFCFILLFGFDVILFPLFKYLWTTSSFYMFWMPDHLTLAV | 73900
57 | MLSQSGLPKVLGLASAFVYSWTPMILLACYTVGSLCFYLIIPSLLGEILWYIY | 60100
58 | VLSDKEKHRVASQHLNGESSPQLVPHSHHQPHSDTDEEDWESIGAASLRNNSL | 35500
59 | KRHAKRRRDKRKQKEKKNSKRDESSSASDSDRRSQSSSRRSRSSSAGSKRSTR | 17400
60 | MSFLLCGFCITFFFRFFLLSLFWMIRREQGICVSRLMFFFSFFFLSFNIIIFA | 52300
61 | SFTSKLNNPQFLGSLDLEILEELEKLISAQEFSRNFTEDVDESLQSEIDLMNY | 146000
